The nature of the data set: soluble fraction after stress (log2 fold change); higher = more stays soluble; pooled small domains, quantitative proteomics. The note with it: stress: pH 4. The essentials:
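After pH 4 stress, pooled custom libraries of small protein domains were quantified with high-throughput quantitative proteomics. Aggregation propensity is taken from the fold change in each domain's soluble amount following the acid stress. The scale is log2, where higher values mean more stayed soluble.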
On to “HMNIQGIFGRNLKQKRLEKGMTQEQLAEKAGVSTDTVKRYESGKYDGIRLDMAWYMANALDTPLQALLPP”, for which the “soluble fraction (log2)” value is 0.0744.
Regarding “HMNISALKGKIGEVYLKIPAHNAGKGKVLISLKGTHHELYAITRSGEDISSGEFVKVIEIEDEILVVEK”, the “soluble fraction (log2)” value was -0.537.
For the sequence “HMNITFAENIKQFRKAKSMSMEELGKRLGKAKSSISAWENGKRTPKINELKSISEALGVTISQLLGF”, the “soluble fraction (log2)” value was -0.293.
Turning to “HMNIYIEFGRRLAFIRQNSKLSQSQIAQKLNIAQSTYAGYEKGVRKIPLEIIVQLSKILNISPTILILG”, the “soluble fraction (log2)” value was -0.618.
As to “HMNKADFLRKLDRELSVLDQEERKEILSFYEERFYTGTNYENKTELDIINELENPEIIAKNVLEEYGV”, the “soluble fraction (log2)” value is -1.45.
As to “HMNKDEFLRRLEDALSGEVPASVIRENLNYYADYLSQELGKGRTMDEIIEEIGEPNIVARTIINSAEAA”, the “soluble fraction (log2)” value was -0.602.
Consider “HMNKDWQDEVALQRYTMITPLLSEDLDNAKRIAMREKIAQDNLTTARSLYRYEKAYRENGFQGLRPTD”, for which the “soluble fraction (log2)” value was -0.262.
Regarding “HMNKEIEDYVATYSSMKAKEAAAIFDTMTSDLDLVAKILEAMSADDRAKILEQMNEENAARLTKMMD”, the “soluble fraction (log2)” value is -0.654.
Under “HMNKEQIASNIAEARKRSGLNQSELARRLGIRPQSVQQWEKGTATPKLDRLTAIAQVLGVSLESLTG” stands 0.22; under “HMNKFADLAGNIIYNENGVEVFNFGKYKGQPVAEVFKKDIGYYGWIQNADFPRYTKKVFTAIQLKSK”, -0.0985.
For “HMNKIDVVEVDMSKPYEDMTVTELQNVILGKLASNGPVTDQMKKDVAENIYHDSLVNWAKSF”, the “soluble fraction (log2)” value is -0.303.
As for “HMNKIENLSQTILNILRKDHSQAFNYKQIAAKLQLDDPSSRNQIVKKLKDLQGKGTIQEIERGKYILTP”, the “soluble fraction (log2)” value is ≥ 0.43.
“HMNKITIDQAKEIALNHAKLTAEQVSFIRTESEFDDGIEKYNIEFYYNNQKYDYDINAVNGQIIQYDLEG”: the “soluble fraction (log2)” value was -0.23.
Consider “HMNKITIEEAKSIALKHSNLDESQVSFIRSEYDFDNGIEKYEIEFYYNNNKYEYEINAKTGDIISYDYDI”, for which the “soluble fraction (log2)” value is -0.528.
On to “HMNKKAAYKDMAGYFAEMKSKDAADILSRLKDEDIIGIFNEMPRDMVAEMLQKMDRDKATTLTRKML”, for which the “soluble fraction (log2)” value was determined as 0.235.
“HMNKKEQYQNIISNFLEKMSEEDRLIFNMHFFKSINISQIARSIDREGYYVKTKIENLLADLKSLMIGNNL”: the “soluble fraction (log2)” value was -1.17.
Next, “HMNKKETRLNNFIHFLKIRNSITVKEMANHLNVSEMTVRRDIKELTADHTINFENGKIMFNPQSSL”: 0.33; “HMNKLIIDAAEDKIFFMIMNNDISYNISHENTKINFEKLIILINDFLSSKKLKINDITGLYV”: -0.233; “HMNKNIKIPNISNLSREDAESVLKESGISVSTEIKEVESDTIEKGKVVKTEPSIGSTVKQGRTITIYISSG”: 0.092.
For the sequence “HMNKRYKVQVTTDNLKIRKGAGTSYPVVGHITDKGTYTIVETSGKWGKLLSGAGWIYLSYTKK”, the “soluble fraction (log2)” value turned out to be 0.22.
Turning to “HMNKTEIISILEKIVLPTQIRNINIFGSEVIIDLNIDNPSLHAKKKLEKSIINSFDKNHKIIINFNVE”, the “soluble fraction (log2)” value is -0.514.
As to “HMNKTLTEQIYDELKSAIIELELKPGEFVTEEYLAEQLGVSRTPLKSAISKLIFEGLMAYEVGKGTYIS”, the “soluble fraction (log2)” value was -1.32.
In the case of “HMNKVQTFIIEKHIKEVFEHTNRTYYRSGQYYFQTRDEFSMALKRFLKDREPNKKNWIDSIINRA”, the “soluble fraction (log2)” value is 0.195.
Next, “HMNKYQFESKIHIYRATKRMTQQELADLVGVSRQTIMQLERNRYNPSMMLAYGIAKVFDVTIEDLFDFSEV”: 0.0457.
As to “HMNKYYQQLLQADPTGFIDPFKDLGTYDSRLNTFKEPVSELLNPFSGRPYSKIWQKRIETMREIFISYIKS”, the “soluble fraction (log2)” value was -0.213.
For “HMNLDVEQIKKEALNQLIEIGNENDGIVTIKDFKKIDDISSLDEDDIEDIRNLLIENNIEIFE”, the “soluble fraction (log2)” value is -0.641.
As to “HMNLEQTIVLGKRLFNNALDTLGKKQRSIKNKQINKLLELLNFKNMNELYQSIGVGDKNPLLMAQMML”, the “soluble fraction (log2)” value was -0.045.
Under “HMNLESNQYVIDISDSQVINKDEFETILNQNKTKDIVIKSNNNVTFTFEKGSMIGAEGKDNYDFSSQVNY” stands -0.588; under “HMNLFNEIEKQYQALQDRSSASLVDLRHLLLDIEELVNSPDYQALAPDQRSTLQAARKELMRRIQKQEN”, -0.193.
On to “HMNLGDSLFHARRKQGLSQEAVAEQLGVSRQTVSKWEANETLPDIRQSKLMAKLYHTSLDELI”, for which the “soluble fraction (log2)” value is 0.138.
Regarding “HMNLLDYTTLYVTSDGKSVSFGIAGKEIPVSYIAQEAPGTVVIDDTIRIPRKYDMEYILKRFNES”, the “soluble fraction (log2)” value was -1.33.
Turning to “HMNLLGDNIRKLRLEKGLGLNEVARLANITGGYLSSIENNKRTNVGTEILESIAKAIGVSVSDFYL”, the “soluble fraction (log2)” value was -0.0496.
Take “HMNLLGERIREIRMEMGLTAKELAQRASVTPGYISQIEHDQIKPSMNVMMRIAEVLNVPMAALLM”: the “soluble fraction (log2)” value is ≥ 0.43.
Take “HMNLLPAGTYKLKDLVTAEDEEIGAKKGDVVIAHEDTPPSDRVLGVDIFPVIHKNTSKKIYVSLEDI”: the “soluble fraction (log2)” value turned out to be 0.101.
For “HMNLMQIHVARPPNQLGVFSQEEVAAGLQSGRFLPTDQAWRDGMSAWTPLSQWAEFSSVVAAV”, the “soluble fraction (log2)” value was -0.307.
For “HMNLNLDITTYKLEELENLLKLKPNYKQEQIFEAKTKMEKFILKSNLNESKREELYIFLDNIYNKLTNNLL”, the “soluble fraction (log2)” value is -1.34.
Take “HMNLPISDREKELLTLLSKGLLYKEIASKLDITIGTVKQHIHNIYHKLHVSNKTEALNLFNK”: the “soluble fraction (log2)” value came to 0.172.
On to “HMNLRLKEVLDEKNMSLVTLSEKTGIEKGNLSAISNNKKNPTVETLSKIAKALQISLAELFESPP”, for which the “soluble fraction (log2)” value is 0.169.
In the case of “HMNLSDIETWLRELSLEKYALAFSEAEIDFETLPELTEDDLKEVGLPVGPRRKVWGAIQLLRTTD”, the “soluble fraction (log2)” value was -1.37.
For “HMNLSNVVIRKVQEMILSGELQEGDKLPPEREMTQRLGIGRPALREGLKSLEMLGLVERRHGLGNFIINKV”, the “soluble fraction (log2)” value was -0.475.
Regarding “HMNLSPADFSSVRNALGLSLSTVAKESGINRNYLSNFEKKKHFLEETAKVKLRDYYMSIDPDAFAAAL”, the “soluble fraction (log2)” value is -0.291.
On to “HMNLVGGKINSLMTTKNVTIQDLSERSGLTVSQIELLLSGDKVPSLAVLIKIARGLGVRVGTFL”, for which the “soluble fraction (log2)” value is -0.156.
Under “HMNLVRQHTDYAFRLLVALSQAPGKPISTRTLASAADVPYQFASKIMQKLHEEGLVESVMGPFGGFRLVQ” stands -0.419; under “HMNLWIDNTQVINDWTEGASERSGSIYLTAGVKPIKMQYFDSVLNAKAILRWQGPGINKSVVPSSALTPG”, -0.209.
Turning to “HMNMEDIADKIGRLYDNLPDDLKLMIKYRDIDDMTYDEIARKANLPIGTVRSRLHRARDILLREI”, the “soluble fraction (log2)” value is -0.108.
Under “HMNMFGIQRRNHLLSLLQEKKSITVQEAAVIFEVAEETIRRDFRTMEGQGLIVRTHGGALLADD” stands -1.14; under “HMNMMIIHVNGEKYSFQEPITISELILKLELDSRKIAIEYNLEILPRSLFEITSIKNGDKIEIVHFI”, -0.892.
As to “HMNMPYGTVKWFNDAKGFGFIAPEDGSADVFVHFSAINSKGFRSLQEGQRVSYEVTTGPKGAQAAGVTPVT”, the “soluble fraction (log2)” value was -0.91.
For the sequence “HMNMYTVTGRLVDQDGVPQANALVTIDSSSQQTRTSPQGFYLIKVFGTEPSTIKFLVDGYDPQIVNFTP”, the “soluble fraction (log2)” value was -0.278.
For the sequence “HMNNDIDRVFAELTVLSQKKGYLVFDDIEKGTEDLSVNEVDWLTNRLLTSGVEIFDDVPDTIK”, the “soluble fraction (log2)” value was -1.81.

The values above are taken from the domain aggregation screens of Martell et al. (2025).
